This is an account of results in paper PMC3260263, “Structural Characterization of a Novel Chlamydia pneumoniae Type III Secretion-Associated Protein, Cpn0803” (PLoS ONE, 2012).

Values joined by “and” are separate entries in the source; they are usually repeats but may differ in a detail not shown here. Equal entries are not always repeated.

Data set [1] deals with the molecule itself. Description: SEC; Superdex S200 10/300 GL, 20 mM Tris pH 7, 100 mM KCl, 5 mg/mL protein; column standardized with LMW and HMW standards; peak fractions checked by anti-His Western blot.
Data set [2] has as its target GST-CdsF (Chlamydia pneumoniae CWL029). Description: ELISA; glutathione plate assay: GST fusion captured from lysate on glutathione coated plates, bacterial lysate over-expressing the His-tagged protein added, 4°C 2 hours; washed with 500 mM NaCl, 0.1% Triton X-100, 50 mM TRIS-HCl pH 7.5; anti-6xHis antibody, HRP, OPD, absorbance at 450 nm; positive if two standard deviations above GST alone.

Data set [3] addresses GST-CdsN (Chlamydia pneumoniae CWL029). The description is as above.
Data set [4] has as its target GST-CdsQ (Chlamydia pneumoniae CWL029). The description is as above.

B1: His-Cpn0803 (natural protein)
chain: MAAKTKTLELEDNVFLLLEGNLKRIFATPIGYTTFREFQNVVFNCANGQQEIANFFFEMLINGKLTQELAPQQKQAAHSLIAEFMMPIRVAKDIHERGEFINFITSDMLTQQERCIFLNRLARVDGQEFLLMTDVQNTCHLIRHLLARLLEAQKNPVGEKNLQEIQEEITSLKNHFDELTKALQ
notes: Cpn0803 of Chlamydia pneumoniae CWL029 (ortholog of C. trachomatis CT584), 184 amino acids; Hexamer and dimer in solution by gel filtration; a SeMet derivative was used for phasing only; also called recombinant His-Cpn0803; full-length Cpn0803; source: E. coli, over-expressed, in lysate (glutathione plate assay, GST pull-down); E. coli, purified on a column eluted with 300 mM imidazole …
For B1, in data set [1], the “stoichiometry N” value was 6 and 2. Besides, the absorbance (450 nm) (absorbance units) is 0.36 in data set [2], 0.38 in data set [3] and 0.41 in data set [4].
